Test results published in paper PMC9723800, “Structural and dynamic basis of DNA capture and translocation by mitochondrial Twinkle helicase” (Nucleic Acids Research, 2022).
Values joined by “and” are separate entries in the source; they are usually repeats but may differ in a detail not shown here. Identical values can stand only once.

Tests used:
[1] = biological target: WT LcTwinkle (Lates calcarifer Twinkle helicase) (Lates calcarifer); experiment: negative staining EM; 0.02 mg/ml Twinkle in 50 mM Tris pH 8.0, 150 mM KCl, 3 mM DTT, 1 mM ATP, 2 mM MgCl2, ssDNA at 1:2 relative to hexamers; uranyl acetate; 2D classification
[2] = biological target: E325Q LcTwinkle (Lates calcarifer Twinkle helicase, active site mutant) (Lates calcarifer); experiment: cryo-EM structure; E325Q LcTwinkle with ssDNA (1:1.5), 1 mM ATP, 2 mM MgCl2, 50 mM Tris pH 8.0, 150 mM KCl, 3 mM DTT; DNA-bound classes (LcTwinkle-DNA 3.5 A, LcTwinkle-DNA2 7.5 A)
[3] = biological target: E325Q LcTwinkle (Lates calcarifer Twinkle helicase, active site mutant) (Lates calcarifer); experiment: cryo-EM structure; apo (DNA-free) classes found by 3D classification in the same sample prepared with ssDNA and ATP: LcTwinkle6 and LcTwinkle7 (8.5 A)
LcTwinkle [4] = biological target: T1, LcTwinkle (Lates calcarifer, UniProt A0A4W6C5C5, E452Q); experiment: cryo-EM structure of LcTwinkle-ssDNA-ATP complex, […] Å; format: binding; details: 1 mM ATP, 2 mM MgCl2, pH 8.0, five ATP at the subunit interfaces, one Mg2+ each
T1 construct: gene TWNK; shorter variant (primase-like NTD + helicase CTD), synthesized gene, modified pET28a, N-terminal His tag cut by PreScission; E. coli BL21(DE3); homo-hexamer (also heptamer)
T1 sequence (A0A4W6C5C5 128-683 E452Q): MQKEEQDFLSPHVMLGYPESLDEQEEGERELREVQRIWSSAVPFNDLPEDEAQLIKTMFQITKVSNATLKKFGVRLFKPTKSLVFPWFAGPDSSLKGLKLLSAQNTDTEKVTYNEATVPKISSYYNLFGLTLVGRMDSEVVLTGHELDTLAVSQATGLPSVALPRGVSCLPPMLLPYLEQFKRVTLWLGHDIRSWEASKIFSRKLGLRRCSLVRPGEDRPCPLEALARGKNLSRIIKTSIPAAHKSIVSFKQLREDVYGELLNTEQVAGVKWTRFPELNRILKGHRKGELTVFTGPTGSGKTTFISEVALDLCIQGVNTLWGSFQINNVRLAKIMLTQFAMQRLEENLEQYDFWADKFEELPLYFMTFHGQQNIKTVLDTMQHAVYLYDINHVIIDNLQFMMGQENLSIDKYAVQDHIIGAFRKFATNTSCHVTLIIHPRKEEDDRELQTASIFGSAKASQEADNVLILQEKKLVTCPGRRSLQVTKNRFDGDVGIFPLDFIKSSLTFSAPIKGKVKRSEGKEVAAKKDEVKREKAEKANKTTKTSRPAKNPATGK

LcTwinkle [5] = biological target: T2, LcTwinkle (Lates calcarifer, UniProt A0A4W6C5C5); experiment: [gamma-32P]ATP TLC ATPase assay, Michaelis-Menten fit; format: biochemical; details: 12 mM MgCl2, 1 uM ssDNA, 150 mM KCl, pH 8.0, 20 °C; labelled compound as tracer
T2 construct: gene TWNK; shorter variant (primase-like NTD + helicase CTD), synthesized gene, modified pET28a, N-terminal His tag cut by PreScission; E. coli BL21(DE3); homo-hexamer (also heptamer)
T2 sequence (A0A4W6C5C5 128-683): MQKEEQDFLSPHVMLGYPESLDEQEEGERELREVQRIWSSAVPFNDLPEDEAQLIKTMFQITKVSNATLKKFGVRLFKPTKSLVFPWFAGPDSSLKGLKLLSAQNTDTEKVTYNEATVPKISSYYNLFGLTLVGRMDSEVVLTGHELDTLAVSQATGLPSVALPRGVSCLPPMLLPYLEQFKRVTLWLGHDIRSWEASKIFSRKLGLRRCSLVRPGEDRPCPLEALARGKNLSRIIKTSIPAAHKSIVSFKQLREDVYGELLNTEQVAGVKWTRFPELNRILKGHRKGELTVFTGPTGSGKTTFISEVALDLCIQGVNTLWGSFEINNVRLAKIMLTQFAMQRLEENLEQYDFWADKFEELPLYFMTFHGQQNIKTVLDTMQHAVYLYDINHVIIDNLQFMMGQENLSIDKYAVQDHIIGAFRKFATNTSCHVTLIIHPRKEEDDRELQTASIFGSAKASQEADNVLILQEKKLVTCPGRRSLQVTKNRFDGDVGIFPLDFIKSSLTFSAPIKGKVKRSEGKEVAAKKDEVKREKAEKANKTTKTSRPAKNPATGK

LcTwinkle R489A = biological target: T3, LcTwinkle R489A (Lates calcarifer, UniProt A0A4W6C5C5 128-683, R616A); experiment: fluorescence anisotropy; 0.5 mM ATP, 1 mM Mg2+; FA: 25 mM Tris-HCl pH 8.0, 150 mM KCl, 0.5 mM ATP, 1 mM MgCl2, 20 nM Cy5-ssDNA, temperature not stated; SEC/cryo-EM: 50 mM Tris pH 8.0, 150 mM KCl, 3 mM DTT, 1; details: protein: recombinant; tags: N-terminal His tag, PreScission-cleaved; chain copies: 6; label: 5'-Cy5; single strand
T3 sequence: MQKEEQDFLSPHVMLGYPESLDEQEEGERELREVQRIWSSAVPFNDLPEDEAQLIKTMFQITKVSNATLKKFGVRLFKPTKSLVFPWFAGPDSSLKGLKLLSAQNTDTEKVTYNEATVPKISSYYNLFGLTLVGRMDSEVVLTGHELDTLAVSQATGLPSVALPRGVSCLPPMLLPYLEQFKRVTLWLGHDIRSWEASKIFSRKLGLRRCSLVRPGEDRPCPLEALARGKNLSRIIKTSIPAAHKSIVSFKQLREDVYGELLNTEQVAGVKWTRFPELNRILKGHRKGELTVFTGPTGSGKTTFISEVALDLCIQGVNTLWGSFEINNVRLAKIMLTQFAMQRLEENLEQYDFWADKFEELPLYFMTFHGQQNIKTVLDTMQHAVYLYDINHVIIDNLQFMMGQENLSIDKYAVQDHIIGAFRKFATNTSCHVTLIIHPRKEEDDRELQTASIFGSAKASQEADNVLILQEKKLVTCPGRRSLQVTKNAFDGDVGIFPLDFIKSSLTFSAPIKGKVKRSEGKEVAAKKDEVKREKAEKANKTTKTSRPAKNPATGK

LcTwinkle R440A = biological target: T4, LcTwinkle R440A (Lates calcarifer, UniProt A0A4W6C5C5 128-683, R567A); experiment: as above; details: protein: recombinant; tags: N-terminal His tag, PreScission-cleaved; chain copies: 6; label: 5'-Cy5; single strand
T4 sequence: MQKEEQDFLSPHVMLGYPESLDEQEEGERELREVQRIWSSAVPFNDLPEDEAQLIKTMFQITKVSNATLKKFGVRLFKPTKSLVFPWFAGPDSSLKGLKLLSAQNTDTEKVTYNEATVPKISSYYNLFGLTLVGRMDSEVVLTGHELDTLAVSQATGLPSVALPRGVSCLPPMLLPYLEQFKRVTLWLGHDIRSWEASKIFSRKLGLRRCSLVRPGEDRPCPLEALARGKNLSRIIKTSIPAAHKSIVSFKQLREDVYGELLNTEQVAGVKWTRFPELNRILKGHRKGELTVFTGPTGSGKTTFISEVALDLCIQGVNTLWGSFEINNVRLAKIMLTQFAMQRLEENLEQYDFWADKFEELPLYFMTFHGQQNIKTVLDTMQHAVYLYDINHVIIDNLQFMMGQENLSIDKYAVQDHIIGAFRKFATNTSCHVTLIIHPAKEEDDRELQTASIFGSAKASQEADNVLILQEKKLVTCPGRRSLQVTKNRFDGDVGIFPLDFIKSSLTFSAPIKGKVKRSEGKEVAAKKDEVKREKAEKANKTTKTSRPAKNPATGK

LcTwinkle S456A = biological target: T5, LcTwinkle S456A (Lates calcarifer, UniProt A0A4W6C5C5 128-683, S583A); experiment: as above; details: protein: recombinant; tags: N-terminal His tag, PreScission-cleaved; chain copies: 6; label: 5'-Cy5; single strand
T5 sequence: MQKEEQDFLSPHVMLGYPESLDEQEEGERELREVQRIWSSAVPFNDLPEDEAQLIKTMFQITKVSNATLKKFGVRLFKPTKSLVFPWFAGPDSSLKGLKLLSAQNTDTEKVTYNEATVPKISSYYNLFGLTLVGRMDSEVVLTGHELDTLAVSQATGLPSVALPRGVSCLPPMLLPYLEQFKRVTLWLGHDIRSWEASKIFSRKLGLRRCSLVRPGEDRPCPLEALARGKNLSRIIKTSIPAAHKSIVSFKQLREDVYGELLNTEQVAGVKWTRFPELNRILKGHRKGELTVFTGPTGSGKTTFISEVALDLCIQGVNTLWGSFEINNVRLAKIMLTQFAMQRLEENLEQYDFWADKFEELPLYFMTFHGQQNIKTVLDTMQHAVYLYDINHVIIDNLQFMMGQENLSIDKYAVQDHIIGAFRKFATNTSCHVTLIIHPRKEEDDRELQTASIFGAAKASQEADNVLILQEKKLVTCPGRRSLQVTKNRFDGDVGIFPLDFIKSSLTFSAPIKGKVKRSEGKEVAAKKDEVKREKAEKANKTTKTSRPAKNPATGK

LcTwinkle H438A = biological target: T6, LcTwinkle H438A (Lates calcarifer, UniProt A0A4W6C5C5 128-683, H565A); experiment: as above; details: protein: recombinant; tags: N-terminal His tag, PreScission-cleaved; chain copies: 6; label: 5'-Cy5; single strand
T6 sequence: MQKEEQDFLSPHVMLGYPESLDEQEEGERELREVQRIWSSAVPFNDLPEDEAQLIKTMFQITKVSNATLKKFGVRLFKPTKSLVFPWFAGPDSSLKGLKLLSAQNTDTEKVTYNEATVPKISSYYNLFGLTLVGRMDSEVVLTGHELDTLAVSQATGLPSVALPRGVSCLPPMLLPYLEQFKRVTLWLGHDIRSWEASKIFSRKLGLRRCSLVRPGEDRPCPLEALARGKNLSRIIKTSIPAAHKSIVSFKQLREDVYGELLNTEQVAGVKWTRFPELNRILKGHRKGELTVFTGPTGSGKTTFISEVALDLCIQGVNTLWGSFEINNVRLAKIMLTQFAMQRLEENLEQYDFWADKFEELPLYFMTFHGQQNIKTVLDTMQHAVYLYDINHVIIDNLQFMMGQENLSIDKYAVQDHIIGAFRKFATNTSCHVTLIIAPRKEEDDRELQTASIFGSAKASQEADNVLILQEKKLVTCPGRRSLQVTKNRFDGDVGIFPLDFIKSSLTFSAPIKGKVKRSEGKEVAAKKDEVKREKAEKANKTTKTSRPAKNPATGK

LcTwinkle E325Q = biological target: T7, LcTwinkle E325Q (Lates calcarifer, UniProt A0A4W6C5C5 128-683, E452Q); experiment: cryo-EM structure (3.5 A); 1 mM ATP, 2 mM Mg2+; FA: 25 mM Tris-HCl pH 8.0, 150 mM KCl, 0.5 mM ATP, 1 mM MgCl2, 20 nM Cy5-ssDNA, temperature not stated; SEC/cryo-EM: 50 mM Tris pH 8.0, 150 mM KCl, 3 mM DTT, 1; details: protein: recombinant; tags: N-terminal His tag, PreScission-cleaved; chain copies: 6; single strand
T7 sequence: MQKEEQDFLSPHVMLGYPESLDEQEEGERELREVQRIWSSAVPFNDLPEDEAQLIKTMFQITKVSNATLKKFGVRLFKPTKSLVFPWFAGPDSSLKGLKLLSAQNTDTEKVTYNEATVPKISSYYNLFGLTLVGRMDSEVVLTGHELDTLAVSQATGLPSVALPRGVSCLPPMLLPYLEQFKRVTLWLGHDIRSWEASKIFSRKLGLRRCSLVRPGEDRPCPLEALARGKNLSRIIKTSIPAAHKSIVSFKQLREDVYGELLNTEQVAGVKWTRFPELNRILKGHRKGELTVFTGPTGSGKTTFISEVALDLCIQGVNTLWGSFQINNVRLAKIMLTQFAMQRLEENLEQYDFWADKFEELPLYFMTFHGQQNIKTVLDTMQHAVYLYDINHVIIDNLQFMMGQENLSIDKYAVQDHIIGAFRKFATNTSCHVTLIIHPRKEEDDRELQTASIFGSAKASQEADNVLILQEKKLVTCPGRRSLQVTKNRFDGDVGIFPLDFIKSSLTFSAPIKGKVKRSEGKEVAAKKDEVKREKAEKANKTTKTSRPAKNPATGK

In the case of “WT LcTwinkle (Lates calcarifer Twinkle helicase) (enzyme)”, the stoichiometry N [1] is reported as 6 and 7.

With “E325Q LcTwinkle (Lates calcarifer Twinkle helicase, active site mutant) (enzyme)” the stoichiometry N [2] was 6 and the stoichiometry N [3] was 6 and 7.

In the case of `Nc1ncnc2c1ncn2[C@@H]1O[C@H](COP(=O)(O)OP(=O)(O)OP(=O)(O)O)[C@@H](O)[C@H]1O` [ATP], the “cryo-EM structure of LcTwinkle-ssDNA-ATP complex, 3.5 Å” value (LcTwinkle [4]) is reported as “ATPase sites are located at each of the subunit interfaces (Figure 2A), and five ATP molecules” and the KM (LcTwinkle [5]) is reported as “The data were fitted to Michaelis–Menten equation with GraphPad”.

GGATTATTTACATTGGCAGATTCACC (ssDNA) [Cy5-ssDNA]: no binding (LcTwinkle R489A); no binding (LcTwinkle R440A); no binding (LcTwinkle S456A). GGATTATTTACATTGGCAGATTCACC (ssDNA) [Cy5-ssDNA]: no binding (LcTwinkle H438A).

TGGTCTTTTTTTTTTTTTTTTTTTTTTTTT (ssDNA) [TGGTC-oligo(dT) ssDNA]: binds (LcTwinkle E325Q).
